# In article PMC10697951:
# Key:
# [1] = target: SUV420H1(1–390), wild type, with N-terminal 6× His-TEV tag (human) (UniProt Q4FZB7); assay: MST; His-tagged SUV420H1 labelled with RED-tris-NTA (50 nM protein, 10 nM dye) kept constant; nucleosomes serially diluted from 6 μM to 45.75 pM; 20 mM HEPES pH 7.5, 50 mM NaCl, 50 mM KCl, 1 mg/mL BSA, 0.05% Tween-20, 40 μM SAM, 2 mM DTT; room temperature; triplicate
# [2] = tested on: SUV420H1(1-335) (human); assay: MST; conditions: histone H4 K20M; MST: 20 mM HEPES pH 7.5, 50 mM NaCl (listed twice), 50 mM KCl, 1 mg/mL BSA, 0.05% Tween-20, 40 uM SAM, 2 mM DTT, room temperature; EMSA: 25 mM HEPES pH 7.5 …
# [3] = target: SUV420H1(1-390) wild type (human) (UniProt Q4FZB7); assay: MST; conditions: MST: 20 mM HEPES pH 7.5, 50 mM NaCl (listed twice), 50 mM KCl, 1 mg/mL BSA, 0.05% Tween-20, 40 uM SAM, 2 mM DTT, room temperature, EMSA: 25 mM HEPES pH 7.5 …
# [4] = tested on: SUV420H1(63-390) (human); assay: MST; conditions: histone H4 K20M; MST: 20 mM HEPES pH 7.5, 50 mM NaCl (listed twice), 50 mM KCl, 1 mg/mL BSA, 0.05% Tween-20, 40 uM SAM, 2 mM DTT, room temperature; EMSA: 25 mM HEPES pH 7.5 …
# [5] = target: SUV420H1(1–335) (human) (UniProt Q4FZB7); assay: MST; His-tagged SUV420H1 labelled with RED-tris-NTA (50 nM protein, 10 nM dye) kept constant; nucleosomes serially diluted from 6 μM to 45.75 pM; 20 mM HEPES pH 7.5, 50 mM NaCl, 50 mM KCl, 1 mg/mL BSA, 0.05% Tween-20, 40 μM SAM, 2 mM DTT; room temperature; triplicate
# [6] = target: SUV420H1(1–390) R357H (human) (UniProt Q4FZB7); assay: as above
# [7] = target: SUV420H1(1–390) K258A (human) (UniProt Q4FZB7); assay: as above
# [8] = target: SUV420H1(1–390) R257A (human) (UniProt Q4FZB7); assay: as above
# [9] = target: SUV420H1(1–390) Y349A (human) (UniProt Q4FZB7); assay: as above
# [10] = target: SUV420H1(1–390) R352A (human) (UniProt Q4FZB7); assay: as above
# [11] = target: SUV420H1(1–390) R220A (human) (UniProt Q4FZB7); assay: as above
# [12] = target: SUV420H1(1–390) S283L (human) (UniProt Q4FZB7); assay: as above
# [13] = target: SUV420H1(1–390) R357A (human) (UniProt Q4FZB7); assay: as above
# [14] = target: SUV420H1(1–390) S255F (human) (UniProt Q4FZB7); assay: as above
# [15] = target: SUV420H1(1–390) R286A (human) (UniProt Q4FZB7); assay: as above
# [16] = target: SUV420H1(63–390) (human) (UniProt Q4FZB7); assay: as above
# Chain of SUV420H1(63–390) (human) (Q4FZB7 63-390): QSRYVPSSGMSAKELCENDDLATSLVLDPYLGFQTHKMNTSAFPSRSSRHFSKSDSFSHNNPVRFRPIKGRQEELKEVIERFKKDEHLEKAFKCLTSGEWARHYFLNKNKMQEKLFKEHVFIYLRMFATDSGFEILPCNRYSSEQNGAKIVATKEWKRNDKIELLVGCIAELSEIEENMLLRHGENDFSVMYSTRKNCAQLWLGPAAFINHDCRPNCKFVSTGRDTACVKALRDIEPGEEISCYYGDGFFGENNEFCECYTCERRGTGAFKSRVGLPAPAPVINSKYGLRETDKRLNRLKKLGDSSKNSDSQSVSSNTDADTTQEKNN
# Chain of SUV420H1(1-390) wild type (human) (Q4FZB7 1-390): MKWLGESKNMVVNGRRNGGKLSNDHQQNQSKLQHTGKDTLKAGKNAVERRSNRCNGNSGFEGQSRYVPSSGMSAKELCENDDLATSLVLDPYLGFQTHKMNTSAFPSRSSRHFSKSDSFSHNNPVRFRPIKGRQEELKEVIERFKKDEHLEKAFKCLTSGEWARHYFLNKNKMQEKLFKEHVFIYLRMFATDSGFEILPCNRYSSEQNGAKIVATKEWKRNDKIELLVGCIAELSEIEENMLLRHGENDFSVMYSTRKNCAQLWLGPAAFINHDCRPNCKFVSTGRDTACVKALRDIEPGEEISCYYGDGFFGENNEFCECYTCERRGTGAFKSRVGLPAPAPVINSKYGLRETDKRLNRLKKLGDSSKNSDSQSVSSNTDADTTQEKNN
# Chain of SUV420H1(1–390), wild type, with N-terminal 6× His-TEV tag (human) (Q4FZB7 1-390): as above
# Chain of SUV420H1(1–390) R357A (human) (Q4FZB7 1-390 R357A): as the sequence (Q4FZB7 1-390) above, with R357A counted along it
# Chain of SUV420H1(1–335) (human) (Q4FZB7 1-335): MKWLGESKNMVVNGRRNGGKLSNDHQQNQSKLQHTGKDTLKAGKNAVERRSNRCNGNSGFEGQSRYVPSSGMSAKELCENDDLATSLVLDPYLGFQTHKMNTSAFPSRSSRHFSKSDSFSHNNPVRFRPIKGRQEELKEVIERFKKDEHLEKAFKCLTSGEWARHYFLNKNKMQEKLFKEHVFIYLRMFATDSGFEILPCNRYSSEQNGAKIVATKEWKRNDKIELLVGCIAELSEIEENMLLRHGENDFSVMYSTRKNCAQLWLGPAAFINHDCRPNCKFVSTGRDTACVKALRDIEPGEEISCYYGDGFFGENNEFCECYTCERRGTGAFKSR
# Chain of SUV420H1(1–390) R220A (human) (Q4FZB7 1-390 R220A): as the sequence (Q4FZB7 1-390) above, with R220A counted along it
# Chain of SUV420H1(1–390) R357H (human) (Q4FZB7 1-390 R357H): as the sequence (Q4FZB7 1-390) above, with R357H counted along it
# Chain of SUV420H1(1–390) K258A (human) (Q4FZB7 1-390 K258A): as the sequence (Q4FZB7 1-390) above, with K258A counted along it
# Chain of SUV420H1(1–390) Y349A (human) (Q4FZB7 1-390 Y349A): as the sequence (Q4FZB7 1-390) above, with Y349A counted along it
# Chain of SUV420H1(1–390) S283L (human) (Q4FZB7 1-390 S283L): as the sequence (Q4FZB7 1-390) above, with S283L counted along it
# Chain of SUV420H1(1–390) R257A (human) (Q4FZB7 1-390 R257A): as the sequence (Q4FZB7 1-390) above, with R257A counted along it
# Chain of SUV420H1(1–390) R352A (human) (Q4FZB7 1-390 R352A): as the sequence (Q4FZB7 1-390) above, with R352A counted along it
# Chain of SUV420H1(1–390) S255F (human) (Q4FZB7 1-390 S255F): as the sequence (Q4FZB7 1-390) above, with S255F counted along it
# Chain of SUV420H1(1–390) R286A (human) (Q4FZB7 1-390 R286A): as the sequence (Q4FZB7 1-390) above, with R286A counted along it
substance,measurement,setting,value
H2A-containing nucleosome core particle with wild-type H4 (H4K20) (from UniProt P04908 16-130; P06899 1-126; P68431 1-136; P62805 1-103) (complex),Kd,[1],0.227 µM
"NCP H2A, H4K20M",Kd,[2],0.292 µM
same,Kd,[3]; histone H4 K20M,0.062 µM
same,Kd,[4],0.41 µM
H2A.Z-containing nucleosome core particle with wild-type H4 (H4K20) (from UniProt P0C0S5 14-126; P06899 1-126; P68431 1-136; P62805 1-103) (complex),Kd,[1],0.13 µM
"NCP H2A, H4K20 (canonical)",Kd,[3],0.227 µM
"NCP H2A.Z, H4K20",Kd,[3]; histone variant H2A.Z,0.13 µM
H2A-containing nucleosome core particle with H4K20M (from UniProt P04908 16-130; P06899 1-126; P68431 1-136) (complex),Kd,[5],0.292 µM
same,Kd,[6],0.083 µM
same,Kd,[1],0.062 µM
same,Kd,[7],0.112 µM
same,Kd,[8],0.144 µM
same,Kd,[9],0.108 µM
same,Kd,[10],0.22 µM
same,Kd,[11],0.093 µM
same,Kd,[12],0.085 µM
same,Kd,[13],0.213 µM
same,Kd,[14],0.182 µM
same,Kd,[15],0.323 µM
same,Kd,[16],0.41 µM
